Measurements as given in patent US20080226630A1 (SYMPHOGEN A S, published 2008).

T1: recombinant RSV protein G, G(B): residues 66-292 of strain 18537 (human respiratory syncytial virus …, UniProt P20896 66-292)
T1 construct: also called soluble recombinant G protein; recombinant protein G
T1 sequence: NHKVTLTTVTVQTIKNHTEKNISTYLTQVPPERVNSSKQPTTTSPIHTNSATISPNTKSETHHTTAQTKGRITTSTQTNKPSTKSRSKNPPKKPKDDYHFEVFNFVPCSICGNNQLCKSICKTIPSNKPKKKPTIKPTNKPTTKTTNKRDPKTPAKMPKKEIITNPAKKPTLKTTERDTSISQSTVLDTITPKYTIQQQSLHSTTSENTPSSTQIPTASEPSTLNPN

B1: Fab fragment of antibody 853 (Fab)
VH: EVQLVQSGAEVKKPGQSLKISCKTSGYIFTNYWIGWVRQRPGKGLEWMGVIFPADSDARYSPSFQGQVTISADKSIGTAYLQWSSLKASDTAIYYCARPKYYFDSSGQFSEMYYFDFWGQGTLVTVSS
light: EIVLTQSPGTLSLSPGERATLSCRASQSVSSNYLAWYQQKPGQAPRLLIYGASSRAAGMPDRFSGSGSGTDFTLTISRLEPEDFAVYYCQQYGNSPLTFGGGTEVEIKRTVAAPSVFIFPPSDEQLKSGTASVVCLLNNFYPREAKVQWKVDNALQSGNSQESVTEQDSKDSTYSLSSTLTLSKADYEKHKVYACEVTHQGLSSPVTKSFNRGEC
notes: also called Fab clone 853
B2: Fab fragment of antibody 817 (Fab, V domains shown)
VH: QVQLVESGGGVVQPGRSLRLSCAASGFGFNTHGMHWVRQAPGKGLEWLSIISLDGIKTHYADSVKGRFTISRDNSKNTVFLQLSGLRPEDTAVYYCAKDHIGGTNAYFEWTVPFDGWGQGTLVTVSS
VL: EIVMTQSPATLSASPGERATLSCWASQTIGGNLAWYQQKPGQAPRLLIYGASTRATGVPARFSGSGSGTEFTLAISSLQSEDFAVYYCQQYKNWYTFGQGTKLELKR
notes: also called Fab clone 817
B3: Fab fragment of antibody 818 (Fab, V domains shown)
VH: QVTLRESGPAVVKPTETLTLTCAFSGFSLNAGRVGVSWIRQPPGQAPEWLARIDWDDDKAFRTSLKTRLSISKDSSKNQVVLTLSNMDPADTATYYCARTQVFASGGYYLYYLDHWGQGTLVTVSS
VL: DIQMTQSPSSLSASVGDRVTITCRASQTIASYVNWYQQKPGRAPSLLIYAASNLQSGVPPRFSGSGSGTDFTLTISGLQPDDFATYYCQQSYSYRALTFGGGTKVEIKR
B4: Fab fragment of antibody 810 (Fab, V domains shown)
VH: QVQLVQSGAEVKKSGSSVKVSCRASGGTFGNYAINWVRQAPGQGLEWVGRIIPVFDTTNYAQKFQGRVTITADRSTNTAIMQLSSLRPQDTAMYYCLRGSTRGWDTDGFDIWGQGTMVTVSS
VL: NIQMTQSPSAMSASVGDRVTITCRASQGISNYLVWFQQKPGKVPKRLIYAASSLQSGVPSRFSGSGSGTEFTLTISSLQPEDFATYYCLQHNISPYTFGQGTKLETKR
notes: also called Fab clone 810
B5: Fab fragment of antibody 831 (Fab, V domains shown)
VH: QVQLVQSGAEVKKPGASVKVSCKASANIFTYAMHWVRQAPGQRLEWMGWINVGNGQTKYSQRFQGRVTITRDTSATTAYMELSTLRSEDTAVYYCARRASQYGEVYGNYFDYWGQGTLVTVSS
VL: DIQMTQSPSTLSASVGDRLTITCRASQNIYNWLAWYQQKPGKAPKLLIYDASTLESGVPSRFSGSGSGTEFTLTISSLQPDDFATYYCQQYNSLSPTFGQGTKVEIKR
notes: also called Fab clone 831
B6: Fab fragment of antibody 811 (Fab)
VH: QVQLVQSGAVVETPGASVKVSCKASGYIFGNYYIHWVRQAPGQGLEWMAVINPNGGSTTSAQKFQDRITVTRDTSTTTVYLEVDNLRSEDTATYYCARQRSVTGGFDAWLLIPDASNTWGQGTMVTVSS
light: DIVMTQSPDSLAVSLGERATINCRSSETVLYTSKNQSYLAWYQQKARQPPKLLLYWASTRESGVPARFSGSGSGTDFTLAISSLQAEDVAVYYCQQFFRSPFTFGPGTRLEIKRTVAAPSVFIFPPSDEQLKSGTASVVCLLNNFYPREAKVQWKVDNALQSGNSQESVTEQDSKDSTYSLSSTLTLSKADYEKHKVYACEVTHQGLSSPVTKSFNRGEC
notes: also called Fab clone 811
B7: Fab fragment of antibody 819 (Fab, V domains shown)
VH: QVQLQESGPGLVKPSQTLSLTCTVSSGAISGADYYWSWIRQPPGKGLEWVGFIYDSGSTYYNPSLRSRVTISIDTSKKQFSLKLTSVTAADTAVYYCARDLGYGGNSYSHSYYYGLDVWGRGTTVTVSS
VL: EIVLTQSPATLSLSPGERATLSCRASQSVSSSLAWYQQTPGQAPRLLIYDASYRVTGIPARFSGSGSGIDFTLTISSLEPEDFAVYYCQQRSNWPPGLTFGGGTKVEIKR
B8: Fab fragment of antibody 838 (Fab)
VH: QVQLVESGGGVVQPGTSLRLSCAASGFTFSTFGMHWVRQAPGKGLEWVAVISYDGNKKYYADSVKGRFTISRDNSKNTLYLQVNSLRVEDTAVYYCAAQTPYFNESSGLVPDWGQGTLVTVSS
light: DIQMTQSPSSLSASVGDRVSITCRASQGISNYLAWYQQKPGKVPKLLIYAASTLQSGVPSRFSGSGSGTDFTLTISSLQPEDVATYYCQKYNSAPQTFGQGTKVEIKRTVAAPSVFIFPPSDEQLKSGTASVVCLLNNFYPREAKVQWKVDNALQSGNSQESVTEQDSKDSTYSLSSTLTLSKADYEKHKVYACEVTHQGLSSPVTKSFNRGEC
notes: also called Fab clone 838
B9: Fab fragment of antibody 796 (Fab)
VH: QVQLVESGGGVVQPGRSLRLSCAASGFSFSHFGMHWVRQVPGKGLEWVAIISYDGNNVHYADSVKGRFTISRDNSKNTLFLQMNSLRDDDTGVYYCAKDDVATDLAAYYYFDVWGRGTLVTVSS
light: DIVMTQTPLSLSVTPGQPASISCRSSQSLLRSDGKTFLYWYLQKPGQSPQPLMYEVSSRFSGVPDRFSGSGSGADFTLNISRVETEDVGIYYCMQGLKIRRTFGPGTKVEIKRTVAAPSVFIFPPSDEQLKSGTASVVCLLNNFYPREAKVQWKVDNALQSGNSQESVTEQDSKDSTYSLSSTLTLSKADYEKHKVYACEVTHQGLSSPVTKSFNRGEC
notes: also called Fab clone 796
B10: Fab fragment of antibody 816 (Fab)
VH: EVQLLESGGGLVQPGGSLRLSCVASGFTFSTYAMTWVRQAPGKGLEWVSVIRASGDSEIYADSVRGRFTISRDNSKNTVFLQMDSLRVEDTAVYFCANIGQRRYCSGDHCYGHFDYWGQGTLVTVSS
light: DIVMTQSPLSLPVTPGEPASISCRSSQSLLHSDGRYYVDWYLQKPGQSPHLLIYLASNRASGVPDRFTGSGSGTDFTLKISRVEAEDVGVYYCMQGLHTPWTFGQGTKVDIKRTVAAPSVFIFPPSDEQLKSGTASVVCLLNNFYPREAKVQWKVDNALQSGNSQESVTEQDSKDSTYSLSSTLTLSKADYEKHKVYACEVTHQGLSSPVTKSFNRGEC
B11: Fab fragment of antibody 735 (Fab, V domains shown)
VH: QVQLQESGPGLVKPSETLSLTCTVSNGAIGDYDWSWIRQSPGKGLEWIGNINYRGNTNYNPSLKSRVTMSLRTSTMQFSLKLSSATAADTAVYYCARDVGYGGGQYFAMDVWSPGTTVTVSS
VL: EIVLTQSPATLSLSPGERATLSCRASQSVNSHLAWYQQKPGQAPRLLIYNTFNRVTGIPARFSGSGSGTDFTLTISSLATEDFGVYYCQQRSNWPPALTFGGGTKVEIKR
notes: also called Fab clone 735
B12: Fab fragment of antibody 825 (Fab, V domains shown)
VH: QVQLVQSGAEVKKPGASVKVSCKVSGYTFTSNGLSWVRQAPGQGFEWLGWISASSGNKKYAPKFQGRVTLTTDISTSTAYMELRSLRSDDTAVYYCAKDGGTYVPYSDAFDFWGQGTMVTVSS
VL: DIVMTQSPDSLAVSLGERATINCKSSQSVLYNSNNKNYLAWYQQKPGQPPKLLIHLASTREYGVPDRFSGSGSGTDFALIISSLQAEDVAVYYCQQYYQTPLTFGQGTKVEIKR
B13: Fab fragment of antibody 858 (Fab, V domains shown)
VH: QVQLVQSGAEVKKPGSSVKVSCKASGGSFDGYTISWLRQAPGQGLEWMGRVVPTLGFPNYAQKFQGRVTVTADRSTNTAYLELSRLTSEDTAVYYCARMNLGSHSGRPGFDMWGQGTLVTVSS
VL: DIQMTQSPSSVSASVGDRVTITCQASQDISNYLNWYQQKPGKAPKLLIFDATKLETGVPTRFIGSGSGTDFTVTITSLQPEDVATYYCQHFANLPYTFGQGTKLEIKR
notes: also called Fab clone 858

Tests used:
[1] = target: T1, recombinant RSV protein G, G(B): …; assay: SPR Biacore 3000, Fab over amine-coupled recombinant protein G
[2] = target: RSV protein F (recombinant or purified F protein) (human respiratory syncytial virus, …); assay: SPR Biacore 3000, Fab over amine-coupled recombinant protein F

Binder	Kd [1] [pM]	koff [1] [s⁻¹]	kon [1] [M⁻¹ s⁻¹]	t1/2 [1] [h]	Kd [2] [pM]	koff [2] [s⁻¹]	kon [2] [M⁻¹ s⁻¹]	t1/2 [2] [h]
B1	790	0.0014	1.77e+06	0.138				
B2					820	7.54e-05	92000	2.5
B3					115	2.2e-05	192000	8.83
B4					200	0.000348	1.74e+06	0.55
B5					1130	0.00042	372000	0.467
B6	340	0.000171	498000	1.13				
B7					140	4.99e-05	356000	3.83
B8	190	5.06e-05	264000	3.83				
B9	480	0.000403	833000	0.478				
B10	90	0.000178	2.02e+06	1.08				
B11					226	9.18e-05	407000	2.17
B12					195	0.00015	772000	1.28
B13					7	3.4e-06	497000	56.7
